Measured values as given in the nanobody polyreactivity screen of Harvey et al. (2022).

Test: yeast display, Sf9 membrane polyspecificity reagent, FACS + sequencing; frameworks hold sequencing errors
Summary of the method: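 A synthetic nanobody library was expressed on Saccharomyces cerevisiae BJ5465 by galactose induction for 36–48 hours. The library was stained for 1 hour at 4 °C with 10% biotinylated, detergent-solubilized Sf9 membrane reagent and enriched with streptavidin microbeads before FACS. Low and high (top ~1%) gates were set on anti-HA fluorescence for expression and streptavidin fluorescence for reagent binding, and each polyreactivity label reflects the gate of origin.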

| Sequence | polyreactivity (PSR sort gate) |
| --- | --- |
| QVQLVESGGGLVQAGGTLRLSCAASGFIIPGYAMGCYRQAPGKERELVAAISGRGGSTYYADSVKGRFTISRDNAKNTVYLQMNSLKPEDTAVYYCNADWQDDLAGYDVDYWGQGTQVTVSS | low polyreactivity |
| QVHLVESGGGLVQAGGSLRISCAASGRIFVGYVMGWYRQAPGKERELVAAITWRGGSTYADSVKGRFTISRDNAKNTVYLQMNSLIPEDTAVYYCAAKVSRTYPRIPYYYWGQGTQVTVSS | high polyreactivity |
| QVQLVESGGGLVQAGGSLRLSCAASGSTFNGYVMGWYRQAPGKERELVAAISRSGGSTYYADSVKGRFTISRDNAKNNVYLQMYSLKPEDTAVYSCAKGGYQHYWGQGTQVTVSS | high polyreactivity |
| QVQLVESGGGLVQAGGSLRLSCAASGYTFPLYAMGWYRQAPGKERELVADINIGGASTYYADSVKGRFTISRDNAKNTVYLQMYSLKPEDTAVYYCAKEYYDGYFPTFDYDYWGQGTQVTVSS | low polyreactivity |
| QVQLVESGGGLVQAGGSLRLSCAASGSTIRWYAMGWDRQAPGKERELVASITWSGGGTYYADSVKGRFTISRDNAKNTVYLQMNSLKPEDTAVYYCNRRTWRYETRGDDYWGQGTQVTVSS | high polyreactivity |
| QVQLVESGGGLVQAGGSLRISCAATGRIFGPYTMGWYRQAPGKERELVARISRRGGSTYYADSVKGRFTISRDNAKNTVYFQMNSLKPEDTAVYYCARSQAVYDGWFAKFGYWGQGTQVTVSS | high polyreactivity |
| QVQLVESGGGLVQAGGSLRLSCAASGRIFSYYAMGWYRQAPGKERELVAAISWSGGRTYYADSVKGRFTISRDNAKNTVYLQMNSLKPEDTAVYYCAARLKLYLPRSAYDYWGQGTQVTVSS | high polyreactivity |
| QVQLVESGGGLVQAGGSLRLSCASSGSNFGRYAMGWYRQAPGKEREFVAAISRSSDNTSYADSVKGRFTISRDIAKNTVYLQMNRLNPEDRAVYYCNADRPFSLGQRKYVDFDEPYNYWGQGTQVTVSS | low polyreactivity |
| QVQLVESGGGLVQAGGSLRLICAASGSTFYWYMGWYRQAPGKERELVAAITSGGRTYYADSVKGRFTISRDNAKNTVYLQMNSLKPEDTAVYYCATTRRYAYRGGHNYWGQGTQVTVSS | high polyreactivity |
| QVQLVESGGGLVQAGGSLRLSCAASGRTFWSYAMGWYRQAPGKEREFVAAISRRGGITYYADSVKGRFTISRDNAKNTVYLQMNSLKPEDTAVYYCAALPASVRRPGWHDYWGQGTQVTVSS | high polyreactivity |
| QVQLVESGGGLVQAGGSLRLSCAASGRTFANYAMGWYRQAPGKERELVAAISYSGGSTYYADSVKGRFTISRDNAKNTVYLQMNSLKPVDTAVYYCAKRWTGLGGYYYWGQGTQVTVSS | high polyreactivity |
| QVQLVESGGGLVQAGGSLRISCAASGSTIGVNAMGLYRQAPGKEMELVAAISVSGGRTYYADSVKGRFTISRDYAKNTVYLQMNSLKPEDTAVYYCAATTYIWPYDYWGQGTQVNVSS | low polyreactivity |
| QVQLVESGGGLVQAGGSLRLSCAASGRTFGHYAMGWYRQAPGKERELVAAITSRGGSTNYADSVKGRFTISRDNAKKTDYLQMNSLKPEDTAVYYCAARLSPEEGYWGQGTQVTVSS | high polyreactivity |
| QVQLVESGGGLVQAGGSLRLTCAASGRTFWYYAMGWYRQAPGKERELVAAISRNGGSTYYEDSVKGRFTISRDNAKNTVYLQMNSLKPEDTAVYYCAATLLRDYDYWGQGTQVTVSS | high polyreactivity |
| QVQLVESGGGLVQAGGSLRLSCAASGRTFDSNAMGWYRQAPGKERELVAAISWSGGSTYYADSVKGRFTISRDNAKNTVYLQMNSLKPEDTAVYYCNRLGRHAPATRYGYWGQGTQVTVSS | high polyreactivity |
| QVQLVESGGGLVQAGGSLRLSCAASGFTFWLYAMGWYRHAPAKEREFVAAISTSGGSTYADSVKGRFTISRDNAKYTVYLQMNSLKPEDTAVYYCNAGYVLYYDYHLFYWGQGTQVTVSS | low polyreactivity |
| QVQLVESGGGLVQAGGSLRLSCAASGFTFASYAMGCYIQPPGKEMELVAAITWSGGSTYYADSVKGRFTISRDNAKNTVYLQMNSLKPEDTAVYYCNALVIARNIEMDYWGQGTQVTVSS | high polyreactivity |
| QVQLVESGGGLVQAGGSLRLSCAASGFTFKYYTMGWYRHAPGKETELDAVITRSGGSTYADSVKGRFTISRDNAKNTVYLQMNSLKPVDTAVYYCAKGAAGINLVRHDYWGQVTQVTVSS | high polyreactivity |
| QVQLVESGGCLVQAGGSLRLSCAASGSIFERNVMGWYRHAPGKERELVAAITSGGSTNYADSVKGRFTISRDNAKNTVYLQMNSLKPEETAVYYCAADVPYRSRFYRYRLSGGDYWGQGTQVTVSS | low polyreactivity |
| HEHLQESRGGLVQAGGSLRLSCAASGSIFQATYMGWYRQAPRKEREFVASITYGSITNYADSVKGRFTIGRDNATDTLYLQMNSLKQEDTAVYYWAVDRHYIPAFHYWGQGTQVTVSS | low polyreactivity |
| QVQLVESGGGLVQAGGSLRLSCAASGIIIKYYAMGWYRQAPGKERELVAAITDRGGSTYYADSVKGRFTISRDNAKNTVYLQMNSLKPEDTAVYYCAARRRAYTPYYYWGQGTQVTVSS | high polyreactivity |
| QVQLVESGGGLVQAGGSLRLSCAASGITFSSYVMGWYRQAPGKERELVAAISRSGGITYYADSVKGRFTISRDNAKNTVYIQMNSLKPEDTAVYYCAATFPAGWSYANYYYWGQGTQVTVSS | high polyreactivity |

| Sequence | polyreactivity (PSR sort gate) |
| --- | --- |
| QVQLVESGGGLVQAGGSLRLICAASGITFTQYAMGWYRQAPGNEREFVAGITISGSSTYYADSVKGRFTISRDNAKNTVYLQMNRLKPEDTAVYYCAAGVRRVYASGHGAYGYWGQGTQVTVSS | low polyreactivity |
| QVQLVESGGGLVQAGGSLRLSCAATGLTFWVNAMAWYRQAPGKERELVADITRSGGITNYADSVKGRFTISRDNANNTVYLQMNSLKPEDNAVYYCNADQRVDHDDFDYWGKGTQVTVSS | low polyreactivity |
| QFQIVDSVRGLVQAGGSLRLSCAASGITFDFYAIGWYRQAPGKERELVAAISYSGTSTSYADSVKGRFTISRDNAKNTVYLQMNSLKAEDTAVYYCNARIGWTHSYYELDYWGQGTQVTVSS | low polyreactivity |
| QVQLVESAGGLVQAGGSHRLSFAATGRIFGPNTMGWYRQAPGKERDLVATITGGGGTNYADSVKGRFRISRVNAKYTDYLQMNSLKPVDTAVYYCAADYGGAYEYGYWGQGTQVTVSS | low polyreactivity |
| QVQLVESGGGLVQAGGSLRLSCAASGRIFVRYAMGWYRQAPGKERELVAAINWRGSSTYYADSVKGRFTISRDNAKNTVYLQMTSLKPEDTAVYYCNTAQRYRVYRYDYWGQGTQVTVSS | high polyreactivity |
| QVQLVESGGGLVQAGGSLRLSCAASGRISRSKTMGWYRQATGKERELFAVINTWIGGSTYYADSVKGRFTISRDNAKNTVYLQMNRQKPEDTAVYYCAADATLWDWWLDYDYWGQVTQVTVSS | high polyreactivity |
| QVQLVESWGGLVQAGGSLRLSCAASGSTFAVNAMGCYRQAPGKERELVDAITVSGGSTDYAYSVKRPFTISRDNAKYSVYLQLNRLKPEDTGVYYCADVRMKYYIYGGYDYWGQGTQVNVSS | low polyreactivity |
| QDQLVESGGGLVQAGGSLRLICAASGSTFVQYVMGWYRPAPGKERELVAAITRSCGSTYYADSVKGRFTISRDNAKNTVYLQMNSMKPEDSAVYYCAAYALRIQYDYWGQGTQVTVSS | high polyreactivity |
| QVQLVESGGGLVQAGGSLRLSCAASGLIFDKYAMGWYRQAPGKERELVAAITRSSGTTYYADSVKGSFTISRDNAKNTVYLQMNSLKPEDTAVYYCATDVDKSLYDYWGQGTQVTVSS | low polyreactivity |
| QVQLVESGGGLVQAGGSLRLSCAASGITFGPYAMGWYRQAPGKERELVAAITWGGGSTYYADSVKGRFTISRDNAKNTVYFQMNSLKPEDTAVYYCAASVEWYGWYPYDFWGQGTQVTVSS | low polyreactivity |
| QVQLVESGGGLVQAGGRLRLTCAASGLTFERHAMGWYSQARGKERDVVAAWSGGGTYYADSVKGRFTISRDNAKNTVYLHLNSLKPQDTAVYYCAADYRYYLSIGVNSWGQGTQVTVSS | low polyreactivity |
| QVQLVESGGGLFQAGGSLRLSCAASGSTFPKYEMGWYRQAPGKERELVATISSGTRTYYADSVKGRFTISRDNAKNTVYLQMNSLKPDDTAVYYCAASYQPRKGAHYGYWGQGSQVTVSS | high polyreactivity |
| QVQLVESGGGLVQAGGRLRLSCAASGSTFLSNDMGWYRQAPGKERELVAAISQSGGNTYYADSVKGRFTISRDKAKNTVYLQMNSVKPEDTAVYYWAALDYWVQGTQVTVSS | low polyreactivity |
| QVQLVESGGGLVQEGGSLRLSCAASGFTFRANAMGWYRQAPGKERELVAVITGSGRTYYSDSVKGRFTISRDNAKNTVYLQMNRLKPEYTAVYYCAARAAYRVSSAGYDSLGQGTQVTVSS | high polyreactivity |
| QVQLVESGGGLVQAGGSLRLSCAASGKIFSYNAMGWYRQAPGKERELVAAISRSGGSTYYADSVKGRFTISRDNAKNTVYLQMNSLKPEDTAVYYCAADWRGRKYDYWGQGTQVTVSS | high polyreactivity |
| QVQLVESGGGLVQAGGSLRLSCAASGSIFVAYAMGWDRQAPGKERELVAAISSSGGTTYYAYSVKGRFTISRDNAKNTVYLQMNSLKPEDTAVYYCAARDYKYYYWGQGTQVTVSS | high polyreactivity |
| QVQLVDSGGGLVQAGGSLSLSCAASGRTFNWYTMGWYRQAPGKEMELVARINGRGGSTYYADSVKGRFTISRDNAKNTVYLQMNSLKPEDTAVYYCNKPHRWPQAGYGYWGQGTQVTVSS | high polyreactivity |
| QVQLVESGGGLVQAGGSLRLSCAASGSIFPSYARGWDRKAPGKERELVAAISSSGGSTYYADSVKGRFTISRDNAKNTVYLQMNSLKPEDTAVYYCATRYRRWSTVVQDDYWGQGTQVTVSS | low polyreactivity |
| QVQLVESGGGLVQAGGSLRLSCAASGSTFYYYAMGWYSPAPGKERELVAAISRGGGSTNYADSVKGRFTISRDNAKNTVYLQMNSLKPEDTAVYYCATDYKYYGRPYNYWGQGTQVTVSS | high polyreactivity |
| QVQLVESGGGLVQAGGSLRLSCAASGRTFHYYVMGWYRQAPGKERELVAAISRSGGNTYYADSVKGRFTISLDNAKNTVYLQMNSLKPEDTAVYYCAAALSAYVKWDYYYWGQGTQVTVSS | low polyreactivity |
| QVQLVESGGGLDQAGGSLRLSCAASGYTFLIYAMGWYRQAPGKERELVAAISYRDGRTYYADSVKGRFTISRDNAKNTVYLQMNSLNPEDTAVYYCAATLFYQPYRSYYYWGQGTQVTVSS | high polyreactivity |
